Each block holds one molecule with its values, some of them ahead of it.
Experiments:
NPP1 = target: T1, NPP1 (Oryza sativa, UniProt Q0X0G2); experiment: hydrolysis kinetics, […] substrate; format: biochemical; settings: 37°C, optimal pH
T1 construct: recombinant, purified from transgenic rice cells (UNP1) overexpressing NPP1 cDNA; 70 kDa SDS-PAGE, 251 kDa gel filtration; gene on chromosome 8
T1 sequence (Q0X0G2 26-623): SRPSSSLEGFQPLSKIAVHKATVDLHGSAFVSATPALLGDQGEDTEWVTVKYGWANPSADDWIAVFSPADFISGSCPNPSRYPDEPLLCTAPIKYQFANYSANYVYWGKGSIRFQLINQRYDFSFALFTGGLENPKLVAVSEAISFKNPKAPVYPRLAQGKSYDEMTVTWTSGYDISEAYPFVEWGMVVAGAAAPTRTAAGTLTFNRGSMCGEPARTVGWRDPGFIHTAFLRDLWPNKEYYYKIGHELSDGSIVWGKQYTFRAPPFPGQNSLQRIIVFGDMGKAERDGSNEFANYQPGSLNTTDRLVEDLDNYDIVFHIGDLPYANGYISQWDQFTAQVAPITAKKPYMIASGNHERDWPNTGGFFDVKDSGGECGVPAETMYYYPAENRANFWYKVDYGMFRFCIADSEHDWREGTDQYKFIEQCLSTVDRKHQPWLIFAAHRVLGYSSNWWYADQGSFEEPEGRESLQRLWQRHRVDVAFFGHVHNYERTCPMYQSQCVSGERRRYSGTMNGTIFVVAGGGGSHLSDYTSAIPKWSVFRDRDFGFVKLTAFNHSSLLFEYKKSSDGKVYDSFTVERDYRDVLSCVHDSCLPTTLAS

purified protein [1] = substrate: O=c1ccn([C@@H]2O[C@H](COP(=O)(O)OP(=O)(O)O)[C@@H](O)[C@H]2O)c(=O)[nH]1; experiment: purified protein; settings: 37°C, optimal pH
purified protein [2] = substrate: Nc1ncnc2c1ncn2[C@@H]1O[C@H](COP(=O)(O)OP(=O)(O)O)[C@@H](O)[C@H]1O; experiment: purified protein; format: biochemical, Oryza sativa; settings: 37°C, no metal required
purified protein [3] = substrate: Nc1ncnc2c1ncn2[C@@H]1O[C@H](COP(=O)(O)OP(=O)(O)O[C@H]2O[C@H](CO)[C@@H](O)[C@H](O)[C@H]2O)[C@@H](O)[C@H]1O; experiment: purified protein; format: biochemical, Oryza sativa; settings: 37°C
purified protein [4] = substrate: O=[N+]([O-])c1ccc(OP(=O)(O)Oc2ccc([N+](=O)[O-])cc2)cc1; experiment: purified protein; format: biochemical, Oryza sativa; settings: 37°C, optimal pH
purified protein [5] = substrate: O=P(O)(O)OP(=O)(O)O; experiment: purified protein; format: biochemical, Oryza sativa; settings: 37°C, optimal pH
[6] = substrate: O=c1ccn([C@@H]2O[C@H](CO[P@@](=O)(O)O[P@@](=O)(O)O[C@H]3O[C@H](CO)[C@@H](O)[C@H](O)[C@H]3O)[C@@H](O)[C@H]2O)c(=O)[nH]1; experiment: purified protein, by the assay type; design: steady-state hydrolysis kinetics of purified recombinant rice NPPs, substrate 0.1-10 mM, 37 °C, optimal pH
Excerpt: (§1) To carry out substrate specificity and kinetic studies of NPP1, NPP2 and NPP6, in this work we produced transgenic rice cells ectopically expressing NPP1, NPP2 and NPP6 and purified the corresponding recombinant proteins as described in the Materials and Methods. Details of the processes for purification of recombinant proteins and quality of the final preparations are shown in Supplementary Table S2 and Supplementary Fig. S1A. […] Purification procedures of NPP1, NPP2 and NPP6 expressed in the transgenic rice cells (UNP1, UNP2 and UNP6, respectively) were essentially identical to those used in the earlier study ([Nanjo et al. 2006]). They are summarized in Supplementary Table S2. Rice callus cells (200 g) derived from the seed embryos of UNP1, UNP2 and UNP6 lines were homogenized in 5 vols. of 10 mM Tris–HCl (pH 8.8) and filtered through four layers of gauze. The homogenates were centrifuged at 20,000 × g for 10 min. The supernatants were then adjusted to acidic pH 5.4 with acetate buffer and centrifuged at 20,000 × g. After re-adjustment to pH 7.4 with 1.5 M Tris–HCl (pH 8.8) and further centrifugation at 20,000 × g, the resulting supernatants were applied to a Con A–Sepharose 4B column (ø 1.0 × 8 cm, Pharmacia) equilibrated with 40 mM Tris–HCl (pH 7.4), 0.5 M NaCl, 1 mM MnCl2 and 1 mM CaCl2, and eluted with 25 ml of 0.5 M α-methyl-D-mannopyranoside in 10 mM Tris–HCl (pH 7.4). The eluents were applied to a Q Sepharose HP column (ø 1.0 × 3 cm, Pharmacia) equilibrated with 10 mM Tris–HCl (pH 7.4) and eluted with 50 ml of a linear gradient of 0–0.5 M NaCl in 10 mM Tris–HCl (pH 7.4). Finally, the enzyme preparation was desalted by ultrafiltration on a Microcon YM-100 (Amicon).

purified protein [7] = substrate: NC(=O)c1ccc[n+]([C@@H]2O[C@H](COP(=O)(O)OP(=O)(O)OC[C@H]3O[C@@H](n4cnc5c(N)ncnc54)[C@H](O)[C@@H]3O)[C@@H](O)[C@H]2O)c1; experiment: purified protein; format: biochemical, Oryza sativa; settings: 37°C, optimal pH
[8] = substrate: NC(=O)c1ccc[n+]([C@@H]2O[C@H](COP(=O)([O-])OP(=O)(O)OC[C@H]3O[C@@H](n4cnc5c(N)ncnc54)[C@H](OP(=O)(O)O)[C@@H]3O)[C@@H](O)[C@H]2O)c1; experiment: purified protein, by the assay type; design: steady-state hydrolysis kinetics of purified recombinant rice NPPs, substrate 0.1-10 mM, 37 °C, optimal pH
Excerpt: as §1

purified protein [9] = substrate: O=c1[nH]cnc2c1ncn2[C@@H]1O[C@H](COP(=O)(O)OP(=O)(O)O)[C@@H](O)[C@H]1O; experiment: purified protein; format: biochemical, Oryza sativa; settings: 37°C, optimal pH
purified protein [10] = substrate: Nc1ccn([C@@H]2O[C@H](COP(=O)(O)OP(=O)(O)O)[C@@H](O)[C@H]2O)c(=O)n1; experiment: purified protein; format: biochemical, Oryza sativa; settings: 37°C, optimal pH
purified protein [11] = substrate: Nc1nc2c(ncn2[C@@H]2O[C@H](COP(=O)(O)OP(=O)(O)O)[C@@H](O)[C@H]2O)c(=O)[nH]1; experiment: purified protein; format: biochemical, Oryza sativa; settings: 37°C, optimal pH
[12] = optimal pH (pH 4.0 with ADP), pH 4.0
[13] = optimal pH (pH 5.0 with ADP-glucose), pH 5.0
[14] = optimal pH (pH 6.0 with ADP-glucose), no metal required, pH 6.0
[15] = optimal pH (pH 4.5 with ADP), pH 4.5

Km (NPP1): 800 µM
Molecule: Nc1nc2c(ncn2[C@@H]2O[C@H](COP(=O)(O)OP(=O)(O)O[C@H]3O[C@H](CO)[C@@H](O)[C@H](O)[C@@H]3O)[C@@H](O)[C@H]2O)c(=O)[nH]1 [GDP-mannose]

Molecule: Nc1ncnc2c1ncn2[C@@H]1O[C@H](COP(=O)(O)OP(=O)(O)OP(=O)(O)O)[C@@H](O)[C@H]1O [ATP]
Km (NPP1): 2100 µM

Km (NPP1): 900 µM
Molecule: Nc1ccn([C@@H]2O[C@H](COP(=O)(O)OP(=O)(O)O[C@H]3O[C@H](CO)[C@@H](O)[C@H](O)[C@H]3O)[C@@H](O)[C@H]2O)c(=O)n1 [CDP-glucose]

B1: NPP6 (Oryza sativa Japonica Group) (protein)
chain: GGGGGVWAFSSSSSSSSYSRIGEQPLSLIGIHRATVGIDAAASVQASPRLLGVKGEDTAWVTVDFAAPHASDGDWIGVFSPSNFNASTCPGPSGSDSGPVICSAPIKYQLANYSSDYGKTGKGTLKFQLINQRQDFSFALFTGGLSNPKLIAVSNKIAFANPKAPVYPRLAQGKSWNEMTVTWTSGYDIKEAYPFVEWGMKWSPPTRTAAGTVTFDRESLCGEPARTVGWRDPGFIHTAFLTDLWPNKEYYYKIGHMLPDGKIVWGKFYSFKAPPFPGQKSLQRVVIFGDMGKAERDGSNEYSNYQPGSLNTTDTLIKDLDNIDIVFHIGDITYANGYISQWDQFTQQVEPITARVPYMIASGNHERDWPNSGSFFNGTDSGGECGVLAETMYYTPTENRANYWYKTDYGMFRFCVADSEHDWREGTEQYAFIESCLATVDRKKQPWLVFIAHRVLGYSSGFFYGAGGAFAEPTARQSLQRLWQRHRVDLAFYGHVHNYERTCPVYDGRCASPERSRYSGAVGGTIHAVVGGGGSHLSNFTAEAPPWSVYREMDYGFVKLTAFNYTSLLYEYRRSSDGEVHDSFTVHREYRDVLACVADSCPPTIPPAT
notes: recombinant, purified from transgenic rice cells (UNP6); 74 kDa SDS-PAGE, 224 kDa gel filtration; gene on chromosome 9
Km (purified protein [1]): 500 µM
Vmax (purified protein [1]): 84 µmol/min/mg
kcat (purified protein [1]): 104 s⁻¹
kcat/Km (purified protein [1]): 203000 M⁻¹ s⁻¹
Km (purified protein [2]; [12]): 300 µM
Vmax (purified protein [2]; [12]): 68 µmol/min/mg
kcat (purified protein [2]; [12]): 83 s⁻¹
kcat/Km (purified protein [2]; [12]): 297000 M⁻¹ s⁻¹
Km (purified protein [3]; [13]): 700 µM
Vmax (purified protein [3]; [13]): 105 µmol/min/mg
kcat (purified protein [3]; [13]): 130 s⁻¹
kcat/Km (purified protein [3]; [13]): 193000 M⁻¹ s⁻¹
Km (purified protein [4]): 3000 µM
Vmax (purified protein [4]): 250 µmol/min/mg
kcat (purified protein [4]): 308 s⁻¹
kcat/Km (purified protein [4]): 103000 M⁻¹ s⁻¹
Km (purified protein [5]): 500 µM
Vmax (purified protein [5]): 64 µmol/min/mg
kcat (purified protein [5]): 79 s⁻¹
kcat/Km (purified protein [5]): 175000 M⁻¹ s⁻¹
Km [6]: 1600 µM
kcat [6]: 115 s⁻¹
kcat/Km [6]: 73000 M⁻¹ s⁻¹

B2: NPP1 (Oryza sativa Japonica Group) (protein)
chain: T1 sequence (Q0X0G2 26-623)
notes: recombinant, purified from transgenic rice cells (UNP1) overexpressing NPP1 cDNA; 70 kDa SDS-PAGE, 251 kDa gel filtration; gene on chromosome 8
Km (purified protein [3]; [14]): 800 µM
Vmax (purified protein [3]; [14]): 183 µmol/min/mg
kcat (purified protein [3]; [14]): 214 s⁻¹
kcat/Km (purified protein [3]; [14]): 250000 M⁻¹ s⁻¹
Km (purified protein [7]): 800 µM
Vmax (purified protein [7]): 93 µmol/min/mg
kcat (purified protein [7]): 109 s⁻¹
kcat/Km (purified protein [7]): 133000 M⁻¹ s⁻¹
Km [8]: 1600 µM
Vmax [8]: 121 µmol/min/mg
kcat [8]: 141 s⁻¹
kcat/Km [8]: 85000 M⁻¹ s⁻¹

B3: NPP2 (Oryza sativa Japonica Group) (protein)
chain: RGDEQPLSRIAIERATVAAVDSASVKAQPTVLGLKGQSSDWVVVEFSHPKPSNDDWIGVFSPSGFSSEICQPEYYGDLPPYLCTSPIKFQYANFNNADYNRSGKGLLRLQLINQREDFSFALFSGGLSAPKLIAISNKVSFQNPKAPVYPRLAQGKSWNEMTVTWTSGYSIKEAIPFVEWGHKGGNQMLSPAGTLTFSRNSMCGSPARTVGWRDPGYIHTSFLKELWPDSLYTYRLGHRLLDGTHIWSKSYSFRASPYPGQDSVQRVVIFGDMGKAEIDGSDEYGNYEQASLYTTNQLIKELDSIDMVIHIGDLSYANGYLSQWDQFTQQIEPIASTVPYMIGSGNHERDWPGSGSFYGHNDSGGECGVPTQTMFYVPAENRAKLWYSTDYGMFRFCIADTEQDWRPGTEQYKFIEQCLSSVDRSKQPWLIFLAHRVLGYSSASWYEIMMGSYGEPMGRDGLEELWQKYKVDLAVFGHIHSYERTCPIYQNRCVQDGSNLYTGQFNATTHVIVGGGGAMLSPFRATVPYWSFFRDYDFGFSKLTALNHSTLLFEYKKSRDGKVYDHFTISRDYRDIMACSIDNCPRTTLAV
notes: recombinant, purified from transgenic rice cells (UNP2); 71 kDa SDS-PAGE, 374 kDa gel filtration; gene on chromosome 12
Km (purified protein [1]): 1200 µM
Vmax (purified protein [1]): 85 µmol/min/mg
kcat (purified protein [1]): 101 s⁻¹
kcat/Km (purified protein [1]): 84000 M⁻¹ s⁻¹
Km (purified protein [9]): 2200 µM
Vmax (purified protein [9]): 75 µmol/min/mg
kcat (purified protein [9]): 88 s⁻¹
kcat/Km (purified protein [9]): 40000 M⁻¹ s⁻¹
Km (purified protein [10]): 1900 µM
Vmax (purified protein [10]): 76 µmol/min/mg
kcat (purified protein [10]): 89 s⁻¹
kcat/Km (purified protein [10]): 47000 M⁻¹ s⁻¹
Km (purified protein [2]; [15]): 1100 µM
kcat (purified protein [2]; [15]): 80 s⁻¹
kcat/Km (purified protein [2]; [15]): 73000 M⁻¹ s⁻¹
Km (purified protein [4]): 2600 µM
Vmax (purified protein [4]): 60 µmol/min/mg
kcat (purified protein [4]): 71 s⁻¹
kcat/Km (purified protein [4]): 27000 M⁻¹ s⁻¹
Km (purified protein [11]): 900 µM
Vmax (purified protein [11]): 24 µmol/min/mg
kcat (purified protein [11]): 28 s⁻¹
kcat/Km (purified protein [11]): 32000 M⁻¹ s⁻¹
